In PMC3192257 (Molecular microbiology, 2011):

B1: FliW (natural protein, Bacillus subtilis (strain 3610), UniProt P96503 1-143, looked up)
chain: MIIHTKYHGQMNIKEEQIILFESGIPGFLEEKQFVILPLSEDSPFVALQSVTSENLAFIVVSPFIFFKNYEFDLDESTAELLDIDNIQDVEVMTILTMAEPFEKSTANLLAPIIVNRKNMMAKQVVLHDSSYTTKHPIGGESC
B2: 6His-Hag fusion protein (flagellin) (natural protein)
chain: not shown
B3: His-CsrA (CsrA containing six His residues at the C-terminus) (natural protein, Bacillus subtilis, UniProt P33911 1-74, looked up)
chain: MLVLSRKINEAIQIGADIEVKVIAVEGDQVKLGIDAPKHIDIHRKEIYLTIQEENNRAAALSSDVISALSSQKK

What was measured:
[1] = molecular target: B2; test: ITC
FliW = molecular target: B1; test: ITC

Row | Binder | Kd [1] [nM] | dH (FliW) [kcal/mol] | stoichiometry N (FliW) | Kd (FliW) [nM]
1 | B1 | 140 | – | – | –
2 | B2 | – | -22 | 1.29 | –
3 | B3 | – | -15.4 | 0.46 | 20
